For the test, the target named is FcεRI-bound IgE (human IgE loaded on CHO 3D10 cells expressing FcεRI alpha chain) (human) (UniProt P01854). As to the kind of experiment: FACS on IgE-loaded CHO 3D10 cells (FIG. 4).
Chain of FcεRI-bound IgE (human IgE loaded on CHO 3D10 cells expressing FcεRI alpha chain) (human) (P01854 whole entry, chain 1 of 2): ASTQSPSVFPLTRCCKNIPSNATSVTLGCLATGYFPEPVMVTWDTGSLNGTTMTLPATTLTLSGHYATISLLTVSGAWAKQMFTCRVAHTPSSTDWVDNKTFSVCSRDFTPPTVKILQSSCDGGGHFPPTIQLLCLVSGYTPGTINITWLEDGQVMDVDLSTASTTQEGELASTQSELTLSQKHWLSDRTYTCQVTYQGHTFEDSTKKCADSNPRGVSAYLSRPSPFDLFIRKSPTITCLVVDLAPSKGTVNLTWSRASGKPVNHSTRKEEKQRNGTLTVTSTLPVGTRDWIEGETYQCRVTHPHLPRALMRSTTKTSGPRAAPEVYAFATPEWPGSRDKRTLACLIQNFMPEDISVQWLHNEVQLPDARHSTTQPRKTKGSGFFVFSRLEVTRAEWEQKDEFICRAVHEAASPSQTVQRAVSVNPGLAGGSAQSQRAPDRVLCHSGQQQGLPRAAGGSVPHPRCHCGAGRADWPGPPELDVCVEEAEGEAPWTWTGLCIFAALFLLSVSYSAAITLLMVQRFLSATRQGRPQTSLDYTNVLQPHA
Chain of FcεRI-bound IgE (human IgE loaded on CHO 3D10 cells expressing FcεRI alpha chain) (human) (P12319 26-257, chain 2 of 2, further chain): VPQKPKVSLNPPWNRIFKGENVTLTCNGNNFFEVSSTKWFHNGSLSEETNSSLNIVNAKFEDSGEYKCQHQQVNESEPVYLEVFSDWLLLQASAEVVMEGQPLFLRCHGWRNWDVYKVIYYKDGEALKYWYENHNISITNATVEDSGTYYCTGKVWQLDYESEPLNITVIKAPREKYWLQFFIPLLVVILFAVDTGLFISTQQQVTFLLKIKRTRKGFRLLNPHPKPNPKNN
MOPC21 (murine IgG1 control antibody) came in with a mean channel fluorescence at 0.1 µg/ml (mean channel fluorescence) of 7.3. Substance “humanized mAb 4D5 (human IgG1 control antibody)” came in with a mean channel fluorescence at 0.1 µg/ml (mean channel fluorescence) of 4.7.

The substance “murine anti-human IgE monoclonal antibody MaE11” yielded a mean channel fluorescence at 0.1 µg/ml (mean channel fluorescence) of 6.4.
